The subject of one series is human sarcoma cells. The series can be described thus: Proliferation of sarcoma cells in vitro (1000 cells/60 mm, 10 days, crystal violet). It is filed as cell-based. The conditions noted are these: A2984, HT1080 and HCT116 cells, lentiviral shRNA. The method, then:
FIGS. 16A-16F. Downregulation of CDC25A, a novel Wnt target gene, inhibits proliferation of human sarcoma cells in vitro. A. CDC25A is a direct target of Wnt signaling in sarcoma cells. Chromatin immunoprecipitation was conducted on DNA extracted from U-2 OS, a Wnt autocrine sarcoma cell line. Monoclonal antibody against β-catenin was used in immunoprecipitation. Axin 2, a known Wnt target gene, was used as a positive control. […] C. Downregulation of Wnt signaling (assayed by TCF4 reporter activity) in sarcoma cells expressing dnTCF4. Cells stably expressing TOP luciferase and a normalizer, renilla luciferase, were used in this assay. D. dnTCF expression induces growth arrest in sarcoma cells. Indicated human sarcoma cells were stably infected with dnTCF or an empty vector control and selected in puromycin for 3 days. Cells were plated at 1000 cells/60 mm
density and cultured for 10 days. […] E Knockdown of CDC25A or c-myc induces growth arrest in sarcoma cells. HCTZ 16, a human colon cancer cell line was used for comparison. Indicated cells were stably infected with either empty vector control or shRNA specific for CDC25A or c-myc and selected in puromycin and plated at 1000 cells/60 mm plate and cultured for 10 days. Cells were fixed and stained with crystal violet. F. Western blotting to show specific downregulation of CDC25A or c-myc after shRNA expression in indicated cells. […]

The test system of a further series is uncomplexed β-catenin. Description: Uncomplexed β-catenin, GST-E-cadherin pull-down and immunoblot in NSCLC cells expressing Wnt antagonists. It is filed as cell-based, human. The conditions noted are these: for uncomplexed β-catenin level: H1819 NSCLC cells, stable (constitutive) expression. The method, then: FIGS. 2A-2E. Effects of FRP1 and DKK1 inhibition on Wnt/β-catenin signaling and growth of human NSCLC cells. (A) Effects of constitutive expression of FRP1 and DKK1 on uncomplexed β-catenin in H1819 NSCLC cell line. FRP1 and DKK1 expression was determined by immunoblot analysis as described in Materials and methods. (B) Analysis of NSCLC lines for uncomplexed β-catenin using regulatable expression of HA-tagged FRP1 (upper panel) and Flag-tagged DKK1 (lower panel). NSCLC cells expressing Tet regulatable FRP1-HA or DKK1-Flag were generated as described in supplemental Materials and methods. Expression of FRP1-HA or DKK1-Flag was induced by removal of dox from the culture medium. Cells expressing tetracycline Trans-activator (tTa) were used as control. Analysis of uncomplexed β-catenin was performed as described in Materials and methods using 1 mg total cell lysates, except for A427 cells, where 0.1 mg cell lysate was used. FRP1 and DKK1 expression was determined by immunoblot analysis as described in Materials and methods. (C) FRP1 and DKK1 mediated inhibition of TCF luciferase reporter activity in NSCLC cell lines. Luciferase reporter activity was calculated by dividing the TOP/RL ratio by the FOP/RL ratio. Results were normalized to the results with vector transduced cultures. The values represent the mean±SD from two independent experiments. (D) Real time PCR quantification of FRP1 and DKK1 effects on axin2 mRNA expression. H23, Al 146 and H1819 cells were infected with vector (VEC), FRP1-HA or DKK1-Flag lentiviruses. qRT-PCR was performed as described in supplemental Materials and methods. Relative mRNA expression levels were quantified using the ΔΔC(t) method (Pfaffl, 2001). (E) Effects of DKK1 on cell growth. A549, H23, H1819 and A427 cells were infected with lentiviruses expressing vector (VEC) or DKK1-Flag and 2×10^4 cells were plated into 60 mm tissue culture dishes. Cultures were visualized using crystal violet staining 2-3 weeks after plating. Expression of flagged tagged DKK1 was assessed by immunoblot analysis as described in Materials and methods.
GST-E-cadherin binding and immunoblot analysis was performed as previously described (Bafico et al, 1998), with the exception that for human tumor samples it was done with freshly frozen or stored tissue under cold, mild-detergent conditions. Specifically, the following protocol to assay for uncomplexed (active) β-catenin in human tumor samples was used:
(§1) analysis, cells were co-infected with TOP or FOP firefly luciferase mixed with a lentivirus expressing renilla luciferase (RL) used to normalize for infection efficiency (1:20-1:40 ratio). To assess the effects of FRP1 and DKK1 on TCF luciferase reporter activity, stable reporter cell lines were plated in 6 well plates and infected with vector, FRP1 or DKK1 lentiviruses. Cells were selected for 3 days with puromycin, lysed and processed for dual luciferase analysis. To generate stable inducible lines, cells were infected consecutively with tetracycline trans-activator (tTa) expressing lentivirus, selected for two weeks with 5-10 μg/ml blasticidin, followed by a second infection with lentiviruses expressing inducible FRP1, DKK1, DNTCF-4 or DNTCF-4-mOrange or empty vector, and selected for 4-7 days in 2 μg/ml puromycin in the presence of 10 ng/ml doxycycline. For induction of the antagonists, cells were trypsinized, washed with PBS and plated into 10 cm plates in the presence or absence of doxycyclin. Control cells expressing tTa or empty vector were processed in the same way. All infections were performed for 16 hr in the presence of 8 μg/ml polybrene.
For orientation: A western blot detects proteins with antibodies after separation by electrophoresis.

The test system of a further series is TCF reporter activity. The series can be described thus: TCF mediated luciferase reporter activity (TOP/FOP) in NSCLC cell lines. It is filed as cell-based, human. Conditions: around 30% of Wnt activated NSCLC lines (summary). The method, then:
24 hours before infection, stable reporter cell lines expressing TOP or FOP TCF luciferase and renilla luciferase were plated in 6 well plates at I×IO^5 cells/well. The following day cells were infected with lentiviruses expressing different Wnt antagonists, selected with 2 μg/ml puromycin for 3 days, lysed and processed for luciferase reporter assay using the dual luciferase reporter Kit (Promega) according to the manufacturer's protocol. Luciferase reporter activity was calculated by dividing the ratio TOP/RL by the FOP/RL ratio. Results were normalized to the results with vector transduced cultures.
as §1
In general terms: Reporter assays use an easily measured gene product as a stand-in for the process of interest.

The next series has as its system axin2. The series can be described thus: Real time PCR quantification of axin2 mRNA expression in NSCLC cells. It is filed as cell-based, human. Conditions: around 30% of Wnt activated NSCLC lines (summary). The method, then:
Total RNA was isolated from cells using the Trizol Reagent (Invitrogen) according to the manufacturer's protocol. Semi-quantitative RT-PCR screen was performed using One Step RT-PCR Kit (Invitrogen) according to the manufacturer's protocol. PCR products were separated on 1% agarose gel. 5 μg total RNA was reverse transcribed using Superscript II reverse transcriptase (Invitrogen). Quantitative PCR was performed using SybrGreen 2× master mix (Roche) on a MJ Opticon or Stratagene MxPro3005. 50 ng cDNA were amplified as follows: 94° C. for 15 min, 94° C. for 15 s, 60° C. for 30 s, 72° C. for 1 min. Steps 2 through 4 were repeated for 40 cycles. Each reaction was performed in duplicate, and results of 3 independent experiments were used for statistical analysis. Relative mRNA expression levels were quantified using the ΔΔC(t) method (Pfaffl, 2001). Results were normalized to those for TATA Binding Protein (TBP). Primer sequences can be found in Tables 4 and 5.
(In general: Real-time PCR tracks product formation cycle by cycle.)

The test system of the next series is NSCLC cells. The series can be described thus: Cell growth analysis assay (crystal violet staining) of NSCLC cells. It is filed as cell-based, human. The conditions noted are these: stable DKK1 expression. The source says:
Transduced and marker selected cells were trypsinized, counted and 1-2×10^4 cells plated into 60 mm tissue culture dishes. At 2-3 weeks, cells were washed with PBS, fixed in 10% methanol/acetic acid solution and stained with 1% crystal violet.

The subject of series [1] is autocrine Wnt NSCLC cells. The series can be described thus: Sensitization of NSCLC cells to cisplatin (colony growth, annexin/PI FACS). It is filed as cell-based, human. Conditions: H23 (autocrine Wnt) vs A549 cells, lentiviral DKK1, cisplatin. The method, then: FIGS. 13A and 13E. […] (A and B) Effects of cisplatin on growth of H23 (A) and A549 (B) cells infected with vector (VEC) or DKK1 expressing lentiviruses. 5×10^3 H23 and A549 cells expressing vector or DKK1 were plated in 60 mm plates. Cells were treated for 4 hr with 5 or 20 μM cisplatin or saline as control and colonies were visualized 2 weeks later by crystal violet staining. (C and D) Effects of cisplatin on apoptosis of H23 (C) and A549 (D) cells infected with vector (VEC) or DKK1 expressing lentiviruses and treated for 3 days with increasing concentrations of cisplatin. Adherent and floating cells were collected and processed for FACS analysis using annexin/PI. The percentage of annexin positive cells in vector or DKK1 infected cells is represented in the line graph. Results are the mean±SD of 3 independent experiments. Statistical two-way analysis of variance (ANOVA) tests with Bonferroni multiple testing corrections were performed. *−p<0.05, **−p<0.01, ***−p<0.001. […] Cell lysates were collected every 24 hr and analyzed by immunoblot. […]
For DNA content analysis, cells were trypsinized, combined with floating cells, washed with PBS, stained with propidium iodide (PI), using the CycleTEST Plus DNA reagent kit (Becton Dickinson) following the manufacturer instructions, and subjected to FACS analysis. […] Results were analyzed using Cell Quest 3.2 software (Becton Dickinson).

The mark [2] stands for this setting: H23 and A1146 tumor lines, inducible system, low expression in the presence of dox.
[3] abbreviates: around 30% of Wnt activated NSCLC lines (summary).

Data on three molecules can be found in patent publication US20160274120A1, “METHODS OF DETERMINING WHETHER THE WNT SIGNALING PATHWAY IS UPREGULATED IN A TUMOR” (ICAHN SCHOOL OF MEDICINE AT MOUNT SINAI, priority 2009, published 2016).

In the case of “CDC25A shRNA: shRNA specific for CDC25A, 5′CCAGGGAATTTCATTCCTC3′ (SEQ ID NO: 62) (CCAGGGAAATTTCATTCCTC; chemistry not fully specified)”, the proliferation entry with human sarcoma cells is listed as “inhibited proliferation to varying degrees”.

B1: DKK1: Dickkopf-1, secreted Wnt antagonist binding co-receptor LRP6; Flag-tagged, expressed from lentiviral vector (protein, UniProt O94907 32-266, looked up)
Dickkopf-related protein 1: TLNSVLNSNAIKNLPPPLGGAAGHPGSAVSAAPGILYPGGNKYQTIDNYQPYPCAEDEECGTDEYCASPTRGGDAGVQICLACRKRRKRCMRHAMCCPGNYCKNGICVSSDQNHFRGEIEETITESFGNDHSTLDGYSRRTTLSSKMYHTKGQEGSVCLRSSDCASGLCCARHFWSKICKPVLKEGQVCTKHRRKGSHGLEIFQRCYCGEGLSCRIQKDHHQASNSSRLHTCQRH
modifications: Flag tag
notes: Flag-tagged, expressed from lentiviral vector
In the case of B1, the “uncomplexed β-catenin levels” value in the series on uncomplexed β-catenin (H23 and A1146 cells, full induction (dox removed)) is “further reduced”; in the series on uncomplexed β-catenin (setting [2]) it was “decrease”; in the series on uncomplexed β-catenin (H2347, H358 or A427 cells), “no effect”; in the series on uncomplexed β-catenin (setting [3]), “dramatic decrease”. In the series on uncomplexed β-catenin, the “uncomplexed β-catenin level” value is given as “marked decrease”. Also, the TCF reporter activity entry in the series with TCF reporter activity was “dramatic decrease”. In the series on axin2, the “expression of the Wnt target gene axin2” value is given as “dramatic decrease”. Further, the “cell growth / proliferation vs vector control” value is given as “not associated with any detectable growth inhibition” in the series on NSCLC cells (A549 (no Wnt activation) and A427 (β-catenin mutant) cells); “antiproliferative effects” in the series with NSCLC cells (H23 and H1819 tumor cells). Further, the “sensitization to cisplatin treatment” value in series [1] is reported as “specifically sensitizes”.

B2: FRP1: secreted Frizzled Related Protein, Wnt antagonist inhibiting Wnt ligand-receptor interaction; HA-tagged, expressed from lentiviral vector (protein, UniProt Q8N474 32-314, looked up)
Secreted frizzled-related …: SEYDYVSFQSDIGPYQSGRFYTKPPQCVDIPADLRLCHNVGYKKMVLPNLLEHETMAEVKQQASSWVPLLNKNCHAGTQVFLCSLFAPVCLDRPIYPCRWLCEAVRDSCEPVMQFFGFYWPEMLKCDKFPEGDVCIAMTPPNATEASKPQGTTVCPPCDNELKSEAIIEHLCASEFALRMKIKEVKKENGDKKIVPKKKKPLKLGPIKKKDLKKLVLYLKNGADCPCHQLDNLSHHFLIMGRKVKSQYLLTAIHKWDKKNKEFKNFMKKMKNHECPTFQSVFK
modifications: HA tag
notes: HA-tagged, expressed from lentiviral vector
As to B2, the “uncomplexed β-catenin levels” value in the series on uncomplexed β-catenin (setting [2]) is listed as “significant reduction”; in the series on uncomplexed β-catenin (H2347, H358 or A427 cells) it was “no effect”; in the series with uncomplexed β-catenin (setting [3]), “dramatic decrease”. Further, in the series with uncomplexed β-catenin, the “uncomplexed β-catenin level” value is recorded as “marked decrease”. For the same molecule, the TCF reporter activity result in the series on TCF reporter activity was “dramatic decrease”. In addition, the “expression of the Wnt target gene axin2” value in the series on axin2 is recorded as “dramatic decrease”.
